Test results published in the domain aggregation screens of Martell et al. (2025).

Assay: soluble fraction after stress (log2 fold change); higher = more stays soluble; pooled small domains, quantitative proteomics
Settings: stress: 75 degC
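Further: 20 min heating vs room temperature control held 20 min.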

Sequence	soluble fraction (log2)
HMLPLHFIEIVSLKKIDTLTKRKELINYAFSKNEKTYIYKLAFKKKSELDNLYKEINLFNEIINIDIRHS	-0.577
HMLPLPRFASLDSSEANLRAGPGKDYPILWVYQRKGLPVEIIQEFDTWRRIRDRDGTVGWVQQNLL	-0.351
HMLPNIKSEMEILGDNAKARLEAAELWSKKYLSNEAYDTMSKLATTADGVKAIEEIMNITKS	0.0754
HMLPSELLAQQRIVVQPGHNLWRIARATYGRGARYTVIYQANREQIADPNRIFPGQVFALPAA	-0.102
HMLPSMENWLGELSFWQTPWWERRDFSTFDNIAQSKEELDEFMSRDDNGAILERMQDPINTIEAE	-0.285
HMLQGKVSFFNDEKGYGFIKDNNSKDSYFVHINKVEGEIAEGDKVTFELEKGPKGLVAANVKR	0.0967
HMLQIGDEEFIENIVKQVIDENQKAVDDYKKGKEKVMAFLIGQVMKKTKGKVNSEIVEKTIKKL	-0.211
HMLQKEVHQQIQQALRALPYHQRTAIVLYYYEGMSVKEIAQATGSMQGTVQSRLFFARKKLRPILESILKK	-1.15
HMLQQNRAVEAEQLARKGLSYAQSNIQQAALWRLVAEATEQQGKVDAALNAKNKAMQLEMAG	0.248
HMLRTLSTSEFAEAIGISESSARRLADSGDLRIRRTKGGHRKIPAEEAIRYAREIQATVVRPDLLGLST	-0.0139
HMLRVVSTRQAFDIVRGWADAHPQDPEHNKTLDELEELAKKEVWDDWSRTNEIAERLNALLVSIGANVRTA	-0.961
HMLSDEEKMAALNEQARQRGFTISPGVLPYLITHYQRDMHSLSMILDALDRYSLQTKRTITLPLLHDLLQQ	-1.04
HMLSKEFRFFTYLLESYAQHKNTTAGAVLKTLDEKGLTDFVYKMYDLYHVEAIENAYMDLDSLIATGKPA	-3.64
HMLSKGDRVSWDTPQGRTQGEVVEKKTKDFEHDGQKFTASDDDPAFIVKSEKSGAEAAHKGSALNK	-0.000228
HMLSLGIMEADMLKTGKHTISGISKATPEQRQKIDSDIEELKKKYPEKNITSKVENDNLIVESGVTAP	0.029
HMLSNKIEQLRKEKGYTFAKLSELSGISTGRLSDLATGKRNNPTMDTLIKLADALDVTLDELVGR	-0.26
HMLSNYIGMTLGEAKRNLGQGVNITVNGPNNDNAEVTGQDPTSGSSFDKSKDTITLTT	0.148
HMLSPAQSLLLRTAARRPDGRVIPPDTLRGGARVKVLTSLLQRGWIEPVDGGHVLTDAGYAAIG	-0.819
HMLSTNDYNENKNKLIKDFEIKFIIKHLKLNKGNVAATARSINFHPVSLRQKIAKLGIDVDEVMAG	-2.59
HMLSTQEYIKKNIENGSWKVGEKIPSENNLTEILGVSRASIRVAIQQFIALDVLNSIHGKGTFVKTNNIMG	0.112
HMLTALTDREEEILVLLAHNLSNKEIAKRLNLSVNTVRNHTSHIYEKLNVTSRRKAITLAQSLHLLPP	-1.48
HMLTAPMPGIVRQVNVDTGQKVRKGQPLMVLEAMKMEHQIIAPQAGKIEAIHYNEGDRVEMGSVLISIF	-1.17
HMLTAPMPGIVTEILVKEGQRVRSGQPLMILEAMKMEHQVTAPKSGQIEKIYFSEGEKVDMGSDLLSIS	0.5
HMLTEEVEISLMDMTKPTQPATIKTTATIQKGATTVMPKQIKMPEGYEFYGNYKMDQPFELTMTFVVKKI	-1.17
HMLTGESDNVEKSINKLGTENLALADQTNMGFKGTFINSGHGMAIVVKTGMQTELGKIASMIQIA	0.218
HMLTGISALKPTEAFPDEIFYEIFEIEDNIERTQYIESLRNTARQLKRVTEFNNLYKSFVLDYAQRQKQ	-1.93
HMLTKAEEQVMDYLWKLEKAFVKDILDEFPEPKPAYTTVSTMVRILEKKGMVGYTAYGKNHQYYPL	-1.97
HMLTKSELVFDTLKKRIIDGELEPGTELVISRISEEFNVSTIPVREAIKTLASEGLVEMEPHKSAKVAE	-0.0052

Sequence	soluble fraction (log2)
HMLTKSVLGNQIKVLRLEKGLSQEEFGAPVDLSRSAVSQIESGQMYPSLESIGKIVKYYSTSWDNLVG	-0.846
HMLTLDEKRRLQIMRVQVALTSLGLYNGRVDGVLNAETKLGLEFFQDLKGLPKSGTMTTPTLNALGVPA	-2.43
HMLTLSGPEHAVVRALWPEPELDFDVLIRKTGLPSAQLMTLAMQLEMKKIIRRLPGRRLALMDDIRR	-3.98
HMLTRSTVNVETGTAAIGLGKLYGVYDMSRKGLKYSFSVDSDAMTKVMEMLLPLGIKSLTVEPPS	-1.55
HMLTTADLMMVHANSNKAIDYIVTDDNTKLTVDEPVTAKWITTADSIYRAVAYYNKVGDGKAQIVSVGN	-0.0103
HMLTYPEHVRLRMIELRKTRSLSQSEFGTYLGLSYQTISSLELGRHEWSLAHIQTALLRFELPPNYF	-4.27
HMLVATFGPTTGWEGREIIWDVDRFILVGHGAVPAAGVLDYDRRGQLIWAQPELRAWVVEVDRWETG	-2.22
HMLVMTDNVIKAINDLLNYEAAAGIKKKQRYTAYQIYKELSEQGVYHGSRRRMEEVVSKLRVERNQI	-2.79
HMLVPWKSANLFKLVEPNFRLAERKIPMLPSADREKLQEIMSDMKDAIVDNDKMALMKLDEELTDFLFDFV	-1.49
HMLVSPLDEIPGIGRNRKKTLLNHFGSAKTIEGASLEDLKKVDGISELIAKKIYNYFHLNKNF	-0.85
HMLWTDTKYVTVPDFVGKEPKEIESSYLYNIEYHGEGTKVISQQPAAFSRTIEGGTVRLYLG	-0.0387
HMLYGRRFQVEGLNLERYLRAAADSGIPLKGARRFGRTLTGVAAEEHMAALEALARQGGWLFTPLEAVGAN	-0.948
HMLYKNIAKKLRFRINSDEFAIGDVLPTERQLMEEYQASRVSIRKAIDELVAIDLIEKKQGSGTYIKQKEV	-1.89
HMMESLGIRLKRLRKDKGLTQVELGKLSGVTGVTIGYWEKDLNEPGSKALSKLAQALGTTESYLLYGVS	-1.21
HMMNNKEIGTRIAVLRKGMGDSQAKLAERLDVSPQAVSKWETGQSLPDIGNLLKLSWLFRTSINHILEGS	-2.18
HMNADAPWSPFSPGFTGPMNRPVIGLVTKADLANPQRISLVESWLVQAGAQKVFVTSALENTGVDEMFIFL	-0.152
HMNADLDIQNVNGNTPLWEAVMRYRGDGFFIEQLLKNGANPDIKNNYGVSPKSLARTIANYDVRRFFN	-0.281
HMNADSLIGENIRISERVSNMDQTGMAVVHGQEWTVRTRNDNEIIEPGEEAKILAISGVKLIVEK	-0.136
HMNAESLIGDRAVVTVAIERNKRGRVDVTGQDWAATTRDGEEIKVGQEVLVVGISGVALIVEER	-1.1
HMNAIYKFVLGMIGKRSGVVTTLPSKKQVEFQANMLAEKFMQNGIDPNALKSPEQVKNVLANIDQ	-1.13
HMNALVAKYKQGVTEEQQQGQGIIIIKRVVVRDQEAWVYEKKIFDWGGVSYFRDKQRITASTFNQETAL	-2.79
HMNAQLTTQEAADLLNVSRPHLVKLLEDGELPFLRTGKHRRVRLADLLQFKNAREQASVQAMDELSRQAQ	-0.103
HMNARSTSYSDFIARVDKDEVASVRLDGETVTYQAADGTTYTTVKPESDPIAERLIAKGIEVNVVRQ	-0.348
HMNASITVPDVRNLTVKQASEQLLASGFTPIPYAATKDGVGNDIVYAQDPPPSVLARSGDQITITYNPA	0.0994
HMNASTVTLENFEGAKYDDVYGKYDYQFSVTYEQTDKYESGVIISQKPEAGTKIIKGSQVSLVVAT	0.115
HMNASVIADLFRQTGASVMIHGHTHRPDIHALEANGDAAFRAVLGAWHTEGSMIRVTQDDVTLIAFP	0.0461
HMNATLEQLTQREREIAVLMAEGLTNAQIGSRLNVSMASVKAHLSHIFTKLGVDNRVSAAMMVL	-0.868
